B1: CHMP4C (parent)
chain: TNIRLPNVPSSSLPAQPNRKPGMS
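Note: lentivirally expressed fusions sorted by FACS into six bins by GFP to DsRed ratio, PSI derived from sequencing read proportions per bin multiplied by bin number.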

This data set covers variants of B1. The data set can be described thus: protein stability index of a GFP-peptide fusion (GPS, HEK-293T) (PSI 1-6); higher = more stable. The conditions noted are these: c terminus: a fixed tail appended.
Consider TNIPLPNVPSSSLPAQPNRKPGMS, for which the protein stability index is 4.73.
The same measure for TNIQLPNVPSSSLPAQPNRKPGMS: 4.19; for TNIMLPNVPSSSLPAQPNRKPGMS: 4.51.
The result for TNIKLPNVPSSSLPAQPNRKPGMS reads 3.88; that for TNIGLPNVPSSSLPAQPNRKPGMS, 4.69; that for TNILLPNVPSSSLPAQPNRKPGMS, 4.26.
The result for TNIELPNVPSSSLPAQPNRKPGMS reads 4.68.
As to TNIALPNVPSSSLPAQPNRKPGMS, the protein stability index stood at 4.79.
Take TNICLPNVPSSSLPAQPNRKPGMS: the protein stability index worked out at 4.77.
The same measure for TNIDLPNVPSSSLPAQPNRKPGMS: 4.34.
For the variant TNIFLPNVPSSSLPAQPNRKPGMS, the protein stability index was 4.18.
In the case of TNISLPNVPSSSLPAQPNRKPGMS, the protein stability index was 4.29.
The same measure for TNITLPNVPSSSLPAQPNRKPGMS: 4.61.
The same measure for TNIWLPNVPSSSLPAQPNRKPGMS: 2.96.
The same measure for TNINLPNVPSSSLPAQPNRKPGMS: 2.96; for TNIILPNVPSSSLPAQPNRKPGMS: 3.37; for TNIVLPNVPSSSLPAQPNRKPGMS: 4.35.
On to TNIHLPNVPSSSLPAQPNRKPGMS, for which the protein stability index came to 4.06.
For TNIYLPNVPSSSLPAQPNRKPGMS, the protein stability index was found to be 4.24.
The same measure for TNIRLPAVPSSSLPAQPNRKPGMS: 4.61.
The result for TNIRLPFVPSSSLPAQPNRKPGMS reads 3.38; that for TNIRLPCVPSSSLPAQPNRKPGMS, 4.56.
The same measure for TNIRLPTVPSSSLPAQPNRKPGMS: 4.95.
Regarding TNIRLPKVPSSSLPAQPNRKPGMS, the protein stability index came out at 4.52.
The same measure for TNIRLPEVPSSSLPAQPNRKPGMS: 4.26; for TNIRLPPVPSSSLPAQPNRKPGMS: 5.37.
The same measure for TNIRLPVVPSSSLPAQPNRKPGMS: 4.45.
The result for TNIRLPDVPSSSLPAQPNRKPGMS reads 4.49.
Consider TNIRLPSVPSSSLPAQPNRKPGMS, for which the protein stability index came out at 4.89.
The result for TNIRLPIVPSSSLPAQPNRKPGMS reads 3.95; that for TNIRLPLVPSSSLPAQPNRKPGMS, 4.67; that for TNIRLPRVPSSSLPAQPNRKPGMS, 4.41.
For TNIRLPHVPSSSLPAQPNRKPGMS, the protein stability index was determined as 4.62.
The result for TNIRLPGVPSSSLPAQPNRKPGMS reads 4.76; that for TNIRLPMVPSSSLPAQPNRKPGMS, 4.82; that for TNIRLPQVPSSSLPAQPNRKPGMS, 4.1.
The same measure for TNWRLPNVPSSSLPAQPNRKPGMS: 4.13; for TNGRLPNVPSSSLPAQPNRKPGMS: 4.72; for TNERLPNVPSSSLPAQPNRKPGMS: 4.92.
The same measure for TNVRLPNVPSSSLPAQPNRKPGMS: 4.54.
Regarding TNRRLPNVPSSSLPAQPNRKPGMS, the protein stability index is 4.41.
The same measure for TNMRLPNVPSSSLPAQPNRKPGMS: 4.76.
The same measure for TNLRLPNVPSSSLPAQPNRKPGMS: 4.26; for TNCRLPNVPSSSLPAQPNRKPGMS: 4.55; for TNPRLPNVPSSSLPAQPNRKPGMS: 4.77.
The result for TNKRLPNVPSSSLPAQPNRKPGMS reads 3.99; that for TNARLPNVPSSSLPAQPNRKPGMS, 4.73.
For the variant TNYRLPNVPSSSLPAQPNRKPGMS, the protein stability index worked out at 4.33.
With TNQRLPNVPSSSLPAQPNRKPGMS, the protein stability index was found to be 4.87.
The same measure for TNHRLPNVPSSSLPAQPNRKPGMS: 4.62; for TNFRLPNVPSSSLPAQPNRKPGMS: 4.2; for TNTRLPNVPSSSLPAQPNRKPGMS: 4.82.
The same measure for TNNRLPNVPSSSLPAQPNRKPGMS: 4.81; for TNSRLPNVPSSSLPAQPNRKPGMS: 4.71; for TNDRLPNVPSSSLPAQPNRKPGMS: 4.63.
The same measure for ENIRLPNVPSSSLPAQPNRKPGMS: 3.75; for WNIRLPNVPSSSLPAQPNRKPGMS: 3.62; for FNIRLPNVPSSSLPAQPNRKPGMS: 3.6.
As for LNIRLPNVPSSSLPAQPNRKPGMS, the protein stability index is 3.24.
The same measure for YNIRLPNVPSSSLPAQPNRKPGMS: 3.71; for INIRLPNVPSSSLPAQPNRKPGMS: 3.03; for KNIRLPNVPSSSLPAQPNRKPGMS: 4.55.
For the variant ANIRLPNVPSSSLPAQPNRKPGMS, the protein stability index turned out to be 4.63.
The same measure for PNIRLPNVPSSSLPAQPNRKPGMS: 4.8.
The same measure for VNIRLPNVPSSSLPAQPNRKPGMS: 3.62; for DNIRLPNVPSSSLPAQPNRKPGMS: 4.71.
The result for GNIRLPNVPSSSLPAQPNRKPGMS reads 4.8; that for NNIRLPNVPSSSLPAQPNRKPGMS, 4.82.
With QNIRLPNVPSSSLPAQPNRKPGMS, the protein stability index came to 4.75.
The result for SNIRLPNVPSSSLPAQPNRKPGMS reads 4.4; that for MNIRLPNVPSSSLPAQPNRKPGMS, 4.17.
As to RNIRLPNVPSSSLPAQPNRKPGMS, the protein stability index is 4.77.
The result for CNIRLPNVPSSSLPAQPNRKPGMS reads 4.14; that for HNIRLPNVPSSSLPAQPNRKPGMS, 4.56.
The same measure for TNIRMPNVPSSSLPAQPNRKPGMS: 4.76.
The same measure for TNIRQPNVPSSSLPAQPNRKPGMS: 4.69; for TNIRGPNVPSSSLPAQPNRKPGMS: 5.1.
For the variant TNIRVPNVPSSSLPAQPNRKPGMS, the protein stability index was found to be 4.7.
The same measure for TNIRDPNVPSSSLPAQPNRKPGMS: 5.05; for TNIRPPNVPSSSLPAQPNRKPGMS: 4.88; for TNIREPNVPSSSLPAQPNRKPGMS: 4.46.
The result for TNIRYPNVPSSSLPAQPNRKPGMS reads 4.58; that for TNIRTPNVPSSSLPAQPNRKPGMS, 4.74; that for TNIRKPNVPSSSLPAQPNRKPGMS, 4.71.
The same measure for TNIRFPNVPSSSLPAQPNRKPGMS: 4.38; for TNIRNPNVPSSSLPAQPNRKPGMS: 4.68.
In the case of TNIRIPNVPSSSLPAQPNRKPGMS, the protein stability index was 4.61.
The same measure for TNIRSPNVPSSSLPAQPNRKPGMS: 4.18.
TNIRHPNVPSSSLPAQPNRKPGMS: the protein stability index came out at 4.62.
The same measure for TNIRWPNVPSSSLPAQPNRKPGMS: 4.31; for TNIRAPNVPSSSLPAQPNRKPGMS: 4.71; for TNIRCPNVPSSSLPAQPNRKPGMS: 4.92.
The result for TNIRRPNVPSSSLPAQPNRKPGMS reads 4.42.
The result for TNIRLYNVPSSSLPAQPNRKPGMS reads 2.66.

The values are drawn from the supplement of paper PMC10567573.
